Experiments:
[1] = system: CTLA-4; experiment: Size-exclusion chromatography analysis of CTLA-4 binding to mLcn2-Fc constructs
[2] = system: human CTLA4-Fc on Tni insect cells; experiment: Flow cytometry of Tni insect cells transiently expressing human CTLA4-Fc; type: cell-based; details: Alexa Fluor-647 conjugated variants
Source text: FIG. 10C: Flow cytometry analysis of Tni insect cells induced to transiently express human CTLA4-Fc. Cells were stained with Alexa Fluor-647 conjugated mLcn2-Fc variants and gated for Forward scatter/Side scatter, DAPI^−, singlet size (pulse width), and APC. Uninfected cells stained with mLcn2-Fc are shown in grey as a negative control.

[3] = system: tumor-infiltrating lymphocytes (TILs) in B16 tumor tissues; experiment: In vivo detection of mLcn2 variants in B16 tumor tissues (IHC); details: i.v. 100 μg, melanoma-bearing mice, tumor samples 72 hr post-dose; listed as unmasked (MMP9-pretreated) mLcn2
Experimental: FIG. 4: In vivo detection of mLcn2 variants (CTLA-4 binding protein variants) in B16 tumor tissues.
(§1) FIG. 9: Biodistribution of mLcn2-Fc constructs in vivo. (A-C) Naïve mice were injected i.v. with 100 μg of indicated mLcn2-Fc construct and tissue samples were collected 48 hr. post-dose. Cryosections were stained for CD4 or CD8 (medium gray) and human IgG (light gray) from the thymus (A), spleen (B), and pituitary gland (C, IgG only). (D) Melanoma-bearing mice were injected as above and tumor samples were collected 72 hr. post-dose. 4′,6-diamidino-2-phenylindole (DAPI) nuclear staining shown in dark gray.
FIG. 17: Melanoma-bearing mice were injected i.v. with 100 μg of indicated mLcn2-Fc construct and tumor samples were collected 72 hr. post-dose. Cryosections were stained for CD4 or CD8 (medium gray) and human IgG (light gray). […] 4′,6-diamidino-2-phenylindole (DAPI) nuclear staining shown in dark gray.
(§2) In these experiments constructs were injected i.v. into C57/B16 mice bearing B16 melanomas. Three days after injection, tumor and tissue samples were collected and doublestained using antibodies recognizing either CD4 or CD8 and mLcn2 (e.g. human IgG-Fc). Membranes of both intratumoral CD4+ and CD8+ T cells were decorated with mLcn2 which was not detected on other cell types.

[4] = system: pituicytes; experiment: In vivo binding of mLcn2 variants to cells within the pituitary gland; details: naïve mice, i.v. 100 μg, 48 hr post-dose, human IgG staining
Experimental: FIG. 5: Binding of CTLA-4 antagonist mLcn2 variants to cells within the pituitary gland.
as §1
FIG. 18: Naïve mice were injected i.v. with 100 μg of indicated mLcn2-Fc construct and tissue samples were collected 48 hr. post-dose. Cryosections were stained for human IgG (light gray).
as §2

[5] = system: CD4/CD8 negative cells in the spleen; experiment: In vivo binding of mLcn2 constructs in the spleen; parameters: species or system mice; details: not shown; potentially due to FcR binding
Experimental: as §1
FIG. 16: Naïve mice were injected i.v. with 100 μg of indicated mtLCN2-Fc construct and tissue samples were collected 48 hr. post-dose. Cryosections were stained for CD4 or CD8 (medium gray) and human IgG (light gray) from the spleen.
as §2

[6] = system: CTLA-4-Fc; experiment: SPR kinetics of monomeric mLCN2 and dimeric mLCN2-Fc on immobilized CTLA-4-Fc; type: binding; details: dimeric CTLA-4-Fc immobilized at medium density on CM5 chip
Experimental: FIG. 10A: SPR analysis. Dimeric CTLA-4-Fc was immobilized at medium density to a CM5 chip. A range of 3-1000 nM monomeric mLCN2 (top) and 3-300 nM dimeric mLCN2-Fc (bottom) analytes were used for kinetics analyses. […] Concentration of analytes is 1000; 300; 30; and 3 nM.

[7] = system: murine, primate and human CTLA-4; experiment: CTLA-4 species cross-reactivity of mLcn2; type: binding

CTLA-4-Fc, sequence (P16410 36-161 limits assumed): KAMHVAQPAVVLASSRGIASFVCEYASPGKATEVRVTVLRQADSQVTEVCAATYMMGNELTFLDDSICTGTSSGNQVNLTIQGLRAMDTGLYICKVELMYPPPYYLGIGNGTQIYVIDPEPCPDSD
CTLA-4, sequence (P16410 36-161 limits assumed): as above
human CTLA4-Fc on Tni insect cells, sequence (P16410 36-161 limits assumed): as above

Molecule | CTLA-4 binding by SEC ([1]; FIG. 3B) | SEC elution volume of construct incubated with CTLA-4 ([1]; Superdex 200, apo CTLA-4 13.0 mL, apo constructs ~12.7 mL) [mL] | binding to CTLA4-Fc expressing Tni cells [2] | staining of CD4 or CD8 TILs in tumor [3] | binding to pituitary gland cells [4] | binding in the spleen [5] | ka [6] | kd [6] | CTLA-4 binding across species [7]
Unmasked mLcn2-Fc: masked mLcn2-Fc treated with MMP9, mask released (protein, left off: small tags and cut ends; a dimerising Fc or GST, masked mLcn2-Fc treated with MMP9, mask released) QDSTSDLIPAPPLSKVPLQQNFQDNQFHGKWYVVGLAGNRILRDDQHPMNMYATIYELKEDKSYNVTSVISSHKKCEYTIATFVPGSQPGEFTLGNIKSYGDKTSYLVRVVSTDYNQYAVVFFKLAEDNAEFFAITIYGRTKELASELKENFIRFSKSLGLPENHIVFPVPIDQCIDG | binding of CTLA-4 only to unmasked mLcn2-Fc constructs | 11.3 | showed binding to cells | membrane staining of tumor-infiltrating lymphocytes (TILs) | bound equally well to pituicytes | bound to CD4/CD8 negative cells in the spleen | – | – | –
mLcn2-Fc: mLcn2 fused to IgG1 Fc without a mask fused to the N-terminus (positive control) (protein, left off: a dimerising Fc or GST) QDSTSDLIPAPPLSKVPLQQNFQDNQFHGKWYVVGLAGNRILRDDQHPMNMYATIYELKEDKSYNVTSVISSHKKCEYTIATFVPGSQPGEFTLGNIKSYGDKTSYLVRVVSTDYNQYAVVFFKLAEDNAEFFAITIYGRTKELASELKENFIRFSKSLGLPENHIVFPVPIDQCIDG | – | – | showed binding to cells | – | bound equally well to pituicytes | – | 1.0 E4 M^−1 s^−1 | could not be determined as it was beyond the limitations of the instrument | –
mLCN2: modified lipocalin2 used as a CTLA-4 antagonist, SEQ ID NO:34 (protein, listed as Homo sapiens) QDSTSDLIPAPPLSKVPLQQNFQDNQFHGKWYVVGLAGNRILRDDQHPMNMYATIYELKEDKSYNVTSVISSHKKCEYTIATFVPGSQPGEFTLGNIKSYGDKTSYLVRVVSTDYNQYAVVFFKLAEDNAEFFAITIYGRTKELASELKENFIRFSKSLGLPENHIVFPVPIDQCIDG | – | – | – | – | reactivity with non-immune cells in the pituitary glands | – | 3.6 E4 M^−1 s^−1 | 2.0 E-4 s^−1 | binds to murine, primate and human CTLA-4
